{"source": "patent US9944717", "target": "T1, glycosylated recombinant human complement C2 with a N-terminal his-tag", "T1 chain": "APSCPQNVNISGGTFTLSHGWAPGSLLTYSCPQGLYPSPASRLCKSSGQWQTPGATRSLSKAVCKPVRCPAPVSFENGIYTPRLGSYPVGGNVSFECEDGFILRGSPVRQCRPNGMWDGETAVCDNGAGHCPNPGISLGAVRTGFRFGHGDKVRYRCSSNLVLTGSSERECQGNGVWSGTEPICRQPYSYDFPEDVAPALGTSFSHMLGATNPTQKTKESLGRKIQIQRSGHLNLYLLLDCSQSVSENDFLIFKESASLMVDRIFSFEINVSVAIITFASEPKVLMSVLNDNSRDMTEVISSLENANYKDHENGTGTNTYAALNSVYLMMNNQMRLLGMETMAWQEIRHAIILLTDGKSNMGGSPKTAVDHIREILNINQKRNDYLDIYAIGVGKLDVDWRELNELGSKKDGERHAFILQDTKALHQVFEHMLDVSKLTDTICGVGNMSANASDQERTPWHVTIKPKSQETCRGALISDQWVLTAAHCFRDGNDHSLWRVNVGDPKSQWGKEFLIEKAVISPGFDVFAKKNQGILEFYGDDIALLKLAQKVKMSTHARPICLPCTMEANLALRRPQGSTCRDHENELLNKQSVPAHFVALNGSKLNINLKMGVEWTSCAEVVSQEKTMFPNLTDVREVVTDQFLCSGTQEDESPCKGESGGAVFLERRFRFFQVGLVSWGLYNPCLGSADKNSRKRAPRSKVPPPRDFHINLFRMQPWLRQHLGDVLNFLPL"}
{"protein": "plasma-derived activated human C1s (Calbiochem) (protein) EPTMYGEILSPNYPQAYPSEVEKSWDIEVPEGYGIHLYFTHLDIELSENCAYDSVQIISGDTEEGRLCGQRSSNNPHSPIVEEFQVPYNKLQVIFKSDFSNEERFTGFAAYYVATDINECTDFVDVPCSHFCNNFIGGYFCSCPPEYFLHDDMKNCGVNCSGDVFTALIGEIASPNYPKPYPENSRCEYQIRLEKGFQVVVTLRREDFDVEAADSAGNCLDSLVFVAGDRQFGPYCGHGFPGPLNIETKSNALDIIFQTDLTGQKKGWKLRYHGDPMPCPKEDTPNSVWEPAKAKYVFRDVVQITCLDGFEVVEGRVGATSFYSTCQSNGKWSNSKLKCQPVDCGIPESIENGKVEDPESTLFGSVIRYTCEEPYYYMENGGGGEYHCAGNGSWVNEVLGPELPKCVPVCGVPREPFEEKQRIIGGSDADIKNFPWQVFFDNPWAGGALINEYWVLTAAHVVEGNREPTMYVGSTSVQTSRLAKSKMLTPEHVFIHPGWKLLEVPEGRTNFDNDIALVRLKDPVKMGPTVSPICLPGTSSDYNLMDGDLGLISGWGRTEKRDRAVRLKAARLPVAPLRKCKEVKVEKPTADAEAYVFTPNMICAGGEKGMDSCKGDSGGAFAVQDPNDKTKFYAAGLVSWGPQCGTYGLYTRVKNYVDWIMKTMQENSTPRED", "values": [{"measurement": "cleavage of recombinant C2 by C1s (SDS-PAGE, C1s-to-C2 ratio of 1:25)", "result": "C1s cleaved recombinant C2 into subcomponents C2a (≈70 kDa) and C2b (≈30 kDa)"}]}
